Measured values reported in article PMC2913173 (Journal of molecular biology, 2009).
eCPX = enhanced circularly permuted OmpX display protein

B1: Bak(24–117): construct containing amino acids 24–117 of Bak (helices α1 to α4), eCPX fusion (protein)
chain: EEQVAQDTEEVFRSYVFYRHQQEQEAEGVAAPADPEMVTLPLQPSSTMGQVGRQLAIIGDDINRRYDSEFQTMLQHLQPTAENAYEYFTKIATS
modifications: left off: eCPX (enhanced circularly permuted OmpX display protein), C-terminal, kept
B2: Bak(24–89): eCPX fusion protein comprising helices α1, α2, and α3 of Bak (protein)
chain: EEQVAQDTEEVFRSYVFYRHQQEQEAEGVAAPADPEMVTLPLQPSSTMGQVGRQLAIIGDDINRRY-eCPX

Target: Bcl-xL (Homo sapiens, UniProt Q07817, DEL46-85)
Assay: Cell surface display equilibrium binding assay with flow cytometry
Settings: cells displaying Bak–eCPX fusions, biotinylated Bcl-xL and SAPE

Row | Molecule | Binding to Bcl-xL in words (fluorescence of cell population)
1 | B1 | essentially no binding to Bcl-xL
2 | B2 | fluorescence only slightly above background levels
